Values of other authors in paper PMC3734285, “Expression and Function of the Lipocalin-2 (24p3/NGAL) Receptor in Rodent and Human Intestinal Epithelia” (PLoS ONE, 2013).

Test system: megalin

B1: hNGAL: Human lipocalin-2/Neutrophil Gelatinase-Associated Lipocalin, high-affinity ligand of hNGAL-R, from Enzo Life Sciences (protein)
chain: QDSTSDLIPAPPLSKVPLQQNFQDNQFQGKWYVVGLAGNAILREDKDPQKMYATIYELKEDKSYNVTSVLFRKKKCDYWIRTFVPGCQPGEFTLGNIKSYPGLTSYLVRVVSTNYNQHAMVFFKKVSQNREYFKITLYGRTKELTSELKENFIRFSKSLGLPENHIVFPVPIDQCIDG
In the case of B1, the “fold lower affinity of megalin to hNGAL (versus hNGAL-R)” value is given as roughly 1000 fold.
